# Source: the RNAGym collection of RNA variant scans (doi:10.1073/pnas.2313332121)
# Variants at the floor of the assay were thinned out.
# B1: TPR 5TU (parent)
# chain: GGAUCUUCUCGAUCUAACAAAAAAGACAAAUCUGCCACAAAGCUUGAGAGCAUCUUCGGAUGCAGAGGCGGCAGCCUUCGGUGGCGCGAUAGCGCCAACGUUCUCAACUAUGACACGCAAAACGCGUGCUCCGUUGAAUGGAGUUUAUCAUG
# Variants of: B1
# Test: polymerase ribozyme fitness, log enrichment relative to wild type (log ratio); higher = more active; in vitro selection for triplet polymerase activity
# Outline: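 A single round of triplicate in vitro selection, including frozen incubation at −7 °C, was applied to PCR-built, transcribed mutant libraries of each subunit of a heterodimeric triplet polymerase ribozyme. Illumina sequencing of input and output libraries retained genotypes with ≥10 input reads and ≥1 read per output. Fitness is the base-2 logarithm of genotype enrichment divided by wild-type enrichment, from inverse-variance-weighted replicate averages.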
row,Variant,polymerase ribozyme fitness (log ratio)
1,A41G C96A,0.0745
2,A41C A107C G133A U144G,≤ -4.2
3,A40U G88C U101G,≤ -4.2
4,A41U C54G G65C G84U G141A C149A,≤ -4.2
5,A41C U56G C76A C118G U134C,-3.21
6,A41G G48A C87A U148C,≤ -4.2
7,A40U A98G,-0.242
8,A40G G48C A49C,≤ -4.2
9,A41G U53A C85A,-2.72
10,A40U G84U C85A,-0.755
11,A41C A66U C87A A91U C103G A142U U145C,≤ -4.2
12,A41C U56A U82A A150G,-1.45
13,A41C A60G C75A A138U G141U U146C U148C,≤ -4.2
14,A40G G59A C93A,-4.07
15,A41C A60U A91G U134C,-4.11
16,A41C G94A U104G A113C C116G,≤ -4.2
17,A41C C105A,-2.1
18,A41G G83C G143C,-3.18
19,A40U C69A G143C,-2.79
20,A41C A91C A106U U148C,≤ -4.2
21,A41G A60U U130C,-0.614
22,A41C U45A G68A C85A C118G C129U U144C U146A,≤ -4.2
23,A41C A52G G62C C95G C131A A142U C149A,≤ -4.2
24,A40G G67U C85A A98U U144C U145A,≤ -4.2

row,Variant,polymerase ribozyme fitness (log ratio)
1,A41G A49C G68U C76U C93U A97U,≤ -4.2
2,A41C C95G,-0.72
3,A41C C95A,-0.7
4,A41C C95U,-2.15
5,A41C G50A G74A U82G C95U A107C,≤ -4.2
6,A41C C87U,-1.35
7,A41C C87G,≤ -4.2
8,A41C A49U U53A A60C G88U A122U U134A,≤ -4.2
9,A41G U55A C93U,-0.68
10,A40U G50C C85G C99U A137U U148G,≤ -4.2
11,A40U U55A C85A C116A,-0.563
12,A41U C54A C79U G88C U148C,≤ -4.2
13,A40U C54A C87U A89C,-2.61
14,A41C C79U G94U G100A C125A,-2.23
15,A40U C79G A91G,≤ -4.2
16,A41G G83C C99A,-2.03
17,A41C A91G,-2.85
18,A41C A91C,≤ -4.2
19,A41C U53A C76U,-1.65
20,A41U C63G C85A G152U,≤ -4.2
21,A41G G42A G48C C93A A106C U109C A137C,≤ -4.2
22,A40U C79U A121G,-2.75
23,A40G C95A U104G A142G,-3.8
24,A41C U135G,-3.54

row,Variant,polymerase ribozyme fitness (log ratio)
1,A41C U55A G58C A98U,-0.108
2,A41C C72G A106G G143C U151G,≤ -4.2
3,A40U A107U C132G,≤ -4.2
4,A40G U45A U56A A60G G71C C118G,≤ -4.2
5,A41C A97G A121G,-0.295
6,A40U G62A C95U U104C G133C,-3.3
7,A41C U148C,-3.07
8,A41C U148G,≤ -4.2
9,A41C C57U C96U,-0.458
10,A41C U45G U53A G83C A91U C93U A115G U144A,≤ -4.2
11,A41G C75G,-2.98
12,A40U G48C C85G C99A G143A,≤ -4.2
13,A41C G136A,0.215
14,A41C G58C U82G A106G A137G,-2.57
15,A41C C57A C96U,-0.533
16,A40U G86A,-0.914
17,A41C U56A C85A G117A G140A,≤ -4.2
18,A40G U53A A73U C103G,≤ -4.2
19,A41C G83C,-0.571
20,A40G C116G A120U,-1.72
21,A41G G59A U61A,-0.462
22,A40G U53G G84A A110G G136U,≤ -4.2
23,A41G U53C U55A U82G U127G,-4.02
24,A41C C85U C87U G133C G143A,-4.18

row,Variant,polymerase ribozyme fitness (log ratio)
1,A41C A47U G59U U61A G70C G84U C125A,≤ -4.2
2,A40U C63G,0.0879
3,A41G A52G C87U U144G U148G,-3.95
4,A40U C76A C79A C114U G143U U146C U148A,≤ -4.2
5,A41G A98U C103G A138C,≤ -4.2
6,A41G G88U C131G,≤ -4.2
7,A40U A41C C96U,-0.566
8,A41G C76A U77G G112A C116U A142C,≤ -4.2
9,A41C G50A G86U A137C C149A,≤ -4.2
10,A40U C125U G128C,≤ -4.2
11,A41C U53A U56A A66C C79G G84U,≤ -4.2
12,A41C G65A C93U G94U C103G,≤ -4.2
13,A41C C63G A64C U111C,≤ -4.2
14,A41C G46A U90A A150G,≤ -4.2
15,A41C A60G G92A A106U,-3.98
16,A41C C63G G92U,-0.619
17,A40G C93U A106G C118U,-3.47
18,A40U C51U C93U,-1.15
19,A41C G48A,-1.3
20,A40U A91G,-3.33
21,A40U U55G C95U C105G C116G,-3.94
22,A41C G59A G94A A119C,-1.52
23,A41U A49C,-3.83
24,A40G G58C C79G C87U G136U,≤ -4.2

row,Variant,polymerase ribozyme fitness (log ratio)
1,A41C A89U C123G,-1.41
2,A41C G67C G68A G88C G92A A107C,≤ -4.2
3,A40G G124U,-2.64
4,A40U C54U C85U C108U,≤ -4.2
5,A41C G68C,≤ -4.2
6,A41C A49C G81A A97C C103G G124U U134C,≤ -4.2
7,A40U A91U U102A U104C U139A,≤ -4.2
8,A40G C149A,-3.98
9,A41C C57A C96U U134C,-0.224
10,A41C C57U C87G A98U G136U A147C,≤ -4.2
11,A41G G84A A89G C103G,-3.2
12,A41C U90G A113C,≤ -4.2
13,A41C G83U G124U,-0.893
14,A41C G58A,0.163
15,A41C U55C C85G C108U G126A,≤ -4.2
16,A40G G94C,-1.82
17,A41U C54U C63U U82A C95G A115U,≤ -4.2
18,A41C U55A A97G,-0.161
19,A40U A122C,0.0565
20,A40U U53C,0.103
21,A40U U53A,-0.83
22,A41C U53G,-3.43
23,A41G A49C U82G U90G G133A,≤ -4.2
24,A41C A106G G133C A147U,-1.68

row,Variant,polymerase ribozyme fitness (log ratio)
1,A40U G42U C69U A89G A91U A106C C149U,≤ -4.2
2,A41G C85A U101G,-1.82
3,A41C C99G,-0.603
4,A41C C149A,-4.19
5,A41C C57A C87U C114G,-3.91
6,A40U U45A C69U G83U G141A U144A,≤ -4.2
7,A40U C87A,-3.87
8,A40U C87U,-0.375
9,A41C C54A A91C U104G U127A G140U U151C,≤ -4.2
10,A41G A49U G59U C85A C105U A106G A121U U134C,≤ -4.2
11,A41G U146G,-0.0573
12,A41G G59A G81U C95A C114U,-1.27
13,A40U U56A G80C G84U C99A G143U,≤ -4.2
14,A41G C57G C76U G94A A110G C116G U139G,-4.11
15,A40U G59U C75A C85U U109A,≤ -4.2
16,A41C C57G,-1.09
17,A41C U77C G80A U102C U144G,≤ -4.2
18,A41G G143U,-1.73
19,A40U A49C C72A C95U C99G A138C,≤ -4.2
20,A41G U44A U55A,-3.41
21,A40G G143A,-2.88
22,A41C U44A G84A U146G,≤ -4.2
23,A40U C93U U101G G128U,-4.04
24,A41C U61A G143C,-3.94

row,Variant,polymerase ribozyme fitness (log ratio)
1,A40U C54U G71U C95A U146C G152A,≤ -4.2
2,A41G G94U C114U A150G,-3.98
3,A40U C75G C85G U135G G140U,≤ -4.2
4,A41G G58C U61C U82G C87G U104G C118G G141U,≤ -4.2
5,A41C A49C G50U C51A G92C A106G,≤ -4.2
6,A40U A52G C132G,-3.47
7,A41C A91C C118A C125A A150U,≤ -4.2
8,A41G G88A G143A,≤ -4.2
9,A41C C87A C95U A115C U151G,≤ -4.2
10,A41C A49G U82A A91G,≤ -4.2
11,A40U C63U G70C,-2.97
12,A41C A89U C95U G124A C125G,-1.75
13,A41C C85U C99G C132G U139A,≤ -4.2
14,A40U C87U G88U,≤ -4.2
15,A41C U127C,-2.04
16,A40G G117A,-3.18
17,A40G U82G,-1.38
18,A40U C51U G83C,-0.981
19,A41C G81U G86U U104C,-1.73
20,A41C C93G U144C,-3.7
21,A41G C54G U104A A119G G126U,-1.16
22,A40U G62U C72G G80C U82C A138U,≤ -4.2
23,A41C A49C,-4.01
